Reference: PMC5449603
Like-named read-outs stand apart in the source and are kept apart here.

How the values were obtained:
Experiment in all cases: fluorescence anisotropy
PC4 (hSub1, p15) = PC4 (hSub1, p15) (human, UniProt P53999 1-127)
Sub1 [1] = target: T1, Sub1 (Saccharomyces cerevisiae, UniProt P54000 1-292)
T1 sequence: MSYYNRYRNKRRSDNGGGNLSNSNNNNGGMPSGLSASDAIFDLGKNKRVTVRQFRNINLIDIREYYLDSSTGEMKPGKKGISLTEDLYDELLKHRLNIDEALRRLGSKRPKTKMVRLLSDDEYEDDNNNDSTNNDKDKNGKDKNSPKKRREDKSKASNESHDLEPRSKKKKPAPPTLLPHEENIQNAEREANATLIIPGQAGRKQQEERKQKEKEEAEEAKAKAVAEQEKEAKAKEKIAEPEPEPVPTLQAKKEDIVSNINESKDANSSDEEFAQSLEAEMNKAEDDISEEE

Sub1 [2] = target: T1, Sub1; remark: listed apart in the source

B1: Duplex (FAM) (dsDNA)
DNA 1: GATACTATTGGGTGGGTAGGGTGGGTTTACATGT
DNA 2: ACATGTAAACCCACCCTACCCACCCAATAGTATC
Kd (PC4 (hSub1, p15)): 0.0387 ± 0.008 µM | binding result (Sub1 [1]): no binding

GGTGTGTGGAGCGTGCGTTT (ssDNA) [ssDNA (FAM)]
Kd (Sub1 [2]): 0.0212 ± 0.0011 µM | Kd (PC4 (hSub1, p15)): 0.009 ± 0.0009 µM

GAGCTGGGGTGAGCTGGGCTGAGCTGGGGTGAGCTGGGCTGAGCT (structured_DNA) [SµG (FAM)]
Kd (Sub1 [1]): 0.0087 ± 0.0017 µM
